Publication PMC2756588

T1: Myo5, Q04439
T1 sequence (Q04439 1072-1160, looked up): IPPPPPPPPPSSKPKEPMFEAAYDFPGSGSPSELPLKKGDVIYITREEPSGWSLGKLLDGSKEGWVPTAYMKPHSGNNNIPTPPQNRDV

T2: Bud14, P27637
T2 sequence (P27637 247-328, looked up): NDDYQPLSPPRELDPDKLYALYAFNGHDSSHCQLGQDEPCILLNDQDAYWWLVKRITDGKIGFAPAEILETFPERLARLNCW

T3: Hof1, Q05080
T3 sequence (Q05080 590-669, looked up): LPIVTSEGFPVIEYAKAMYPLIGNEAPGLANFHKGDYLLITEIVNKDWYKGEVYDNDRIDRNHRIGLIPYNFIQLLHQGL

T4: Lsb3, P43603
T4 sequence (P43603 385-451, looked up): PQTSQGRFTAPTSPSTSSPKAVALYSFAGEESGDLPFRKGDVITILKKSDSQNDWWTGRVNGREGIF

T5: Pex13, P80667
T5 sequence (P80667 295-386, looked up): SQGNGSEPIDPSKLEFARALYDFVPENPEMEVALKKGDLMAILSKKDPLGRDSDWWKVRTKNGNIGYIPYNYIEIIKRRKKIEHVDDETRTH

T6: Cdc25, P04821
T6 sequence (P04821 50-136, looked up): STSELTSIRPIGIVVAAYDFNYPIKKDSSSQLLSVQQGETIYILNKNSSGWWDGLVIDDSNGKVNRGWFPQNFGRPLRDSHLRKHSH

T7: Hse1, P38753
T7 sequence (P38753 208-285, looked up): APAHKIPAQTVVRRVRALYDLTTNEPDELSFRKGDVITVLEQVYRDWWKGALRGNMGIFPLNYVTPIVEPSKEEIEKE

T8: Abp1, P15891
T8 sequence (P15891 535-592, looked up): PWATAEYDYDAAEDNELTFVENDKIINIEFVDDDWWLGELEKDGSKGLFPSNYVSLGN

T9: Boi2, P39969
T9 sequence (P39969 32-116, looked up): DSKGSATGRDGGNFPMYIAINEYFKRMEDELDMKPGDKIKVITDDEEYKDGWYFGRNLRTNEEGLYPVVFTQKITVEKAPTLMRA

T10: Bzz1-2, P38822
T10 sequence (P38822 568-633, looked up): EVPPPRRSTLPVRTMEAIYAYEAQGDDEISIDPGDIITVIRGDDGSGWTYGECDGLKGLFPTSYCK

T11: Pin3, Q06449
T11 sequence (Q06449 53-122, looked up): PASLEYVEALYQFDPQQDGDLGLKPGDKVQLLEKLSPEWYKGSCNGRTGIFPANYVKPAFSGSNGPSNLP

T12: Sla1-3, P32790
T12 sequence (P32790 344-424, looked up): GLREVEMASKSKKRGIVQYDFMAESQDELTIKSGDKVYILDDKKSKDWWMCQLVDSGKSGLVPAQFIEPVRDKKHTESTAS

T13: Lsb4, P32793
T13 sequence (P32793 402-468, looked up): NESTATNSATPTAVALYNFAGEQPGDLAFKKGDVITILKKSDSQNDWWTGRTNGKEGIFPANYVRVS

T14: Boi1, P38041
T14 sequence (P38041 1-86, looked up): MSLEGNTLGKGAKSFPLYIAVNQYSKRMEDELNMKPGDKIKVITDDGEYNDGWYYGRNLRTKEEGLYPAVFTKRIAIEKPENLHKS

T15: Cyk3, Q07533
T15 sequence (Q07533 1-83, looked up): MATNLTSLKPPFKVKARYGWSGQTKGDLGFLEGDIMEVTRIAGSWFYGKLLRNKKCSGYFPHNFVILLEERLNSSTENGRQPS

T16: Nbp2, Q12163
T16 sequence (Q12163 103-180, looked up): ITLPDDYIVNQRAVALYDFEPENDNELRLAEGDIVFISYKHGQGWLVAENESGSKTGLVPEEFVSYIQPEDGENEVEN

T17: Bzz1-1, P38822
T17 sequence (P38822 478-572, looked up): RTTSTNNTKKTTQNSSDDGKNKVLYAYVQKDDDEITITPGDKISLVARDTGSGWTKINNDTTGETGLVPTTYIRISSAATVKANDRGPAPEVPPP

T18: Sla1-2, P32790
T18 sequence (P32790 60-140, looked up): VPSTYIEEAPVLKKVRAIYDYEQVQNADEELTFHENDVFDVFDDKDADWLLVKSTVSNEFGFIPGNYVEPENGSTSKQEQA

T19: Lsb1, P53281
T19 sequence (P53281 45-122, looked up): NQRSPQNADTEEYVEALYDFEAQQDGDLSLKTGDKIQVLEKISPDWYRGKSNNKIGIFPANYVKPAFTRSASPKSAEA

T20: Fus1, P11710
T20 sequence (P11710 432-512, looked up): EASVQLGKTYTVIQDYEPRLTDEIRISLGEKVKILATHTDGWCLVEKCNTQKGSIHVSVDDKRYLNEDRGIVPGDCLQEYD

T21: Bbc1, P47068
T21 sequence (P47068 1-78, looked up): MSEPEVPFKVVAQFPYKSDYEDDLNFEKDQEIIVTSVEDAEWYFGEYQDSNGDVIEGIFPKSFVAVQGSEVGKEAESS


molecular target: T1, Myo5, Q04439; assay: SPOT array; details: median of control spots 471

| SPOT intensity | Binder |
| --- | --- |
| 91 | ISPPASPPPEFDFSK |
| 529 | VNIPSPSSSPPPIPK |
| 434 | PIVPSSPAPPLPLSG |

molecular target: T2, Bud14, P27637; assay: SPOT array; details: median of control spots 956

| SPOT intensity | Binder |
| --- | --- |
| 0 | ISPPASPPPEFDFSK |
| 1 | VNIPSPSSSPPPIPK |
| 0 | PIVPSSPAPPLPLSG |

molecular target: T3, Hof1, Q05080; assay: SPOT array; details: median of control spots 4086

| SPOT intensity | Binder |
| --- | --- |
| 0 | ISPPASPPPEFDFSK |
| 0 | VNIPSPSSSPPPIPK |
| 0 | PIVPSSPAPPLPLSG |

molecular target: T4, Lsb3, P43603; assay: SPOT array; details: median of control spots 406

| SPOT intensity | Binder |
| --- | --- |
| 0 | ISPPASPPPEFDFSK |
| 0 | VNIPSPSSSPPPIPK |
| 0 | PIVPSSPAPPLPLSG |

molecular target: T5, Pex13, P80667; assay: SPOT array; details: median of control spots 1341

| SPOT intensity | Binder |
| --- | --- |
| 0 | ISPPASPPPEFDFSK |
| 0 | VNIPSPSSSPPPIPK |
| 0 | PIVPSSPAPPLPLSG |

molecular target: GST; assay: SPOT array; details: median of control spots 978

| SPOT intensity | Binder |
| --- | --- |
| 0 | ISPPASPPPEFDFSK |
| 0 | VNIPSPSSSPPPIPK |
| 0 | PIVPSSPAPPLPLSG |

molecular target: T6, Cdc25, P04821; assay: SPOT array; details: median of control spots 969

| SPOT intensity | Binder |
| --- | --- |
| 0 | ISPPASPPPEFDFSK |
| 0 | VNIPSPSSSPPPIPK |
| 0 | PIVPSSPAPPLPLSG |

molecular target: T7, Hse1, P38753; assay: SPOT array; details: median of control spots 1727

| SPOT intensity | Binder |
| --- | --- |
| 0 | ISPPASPPPEFDFSK |
| 8 | VNIPSPSSSPPPIPK |
| 0 | PIVPSSPAPPLPLSG |

molecular target: T8, Abp1, P15891; assay: SPOT array; details: median of control spots 935

| SPOT intensity | Binder |
| --- | --- |
| 0 | ISPPASPPPEFDFSK |
| 1 | VNIPSPSSSPPPIPK |
| 0 | PIVPSSPAPPLPLSG |

molecular target: T9, Boi2, P39969; assay: SPOT array; details: median of control spots 1161

| SPOT intensity | Binder |
| --- | --- |
| 0 | ISPPASPPPEFDFSK |
| 0 | VNIPSPSSSPPPIPK |
| 0 | PIVPSSPAPPLPLSG |

molecular target: T10, Bzz1-2, P38822; assay: SPOT array; details: median of control spots 4538

| SPOT intensity | Binder |
| --- | --- |
| 0 | ISPPASPPPEFDFSK |
| 0 | VNIPSPSSSPPPIPK |
| 0 | PIVPSSPAPPLPLSG |

molecular target: T11, Pin3, Q06449; assay: SPOT array; details: median of control spots 2171

| SPOT intensity | Binder |
| --- | --- |
| 0 | ISPPASPPPEFDFSK |
| 0 | VNIPSPSSSPPPIPK |
| 0 | PIVPSSPAPPLPLSG |

molecular target: T12, Sla1-3, P32790; assay: SPOT array; details: median of control spots 5475

| SPOT intensity | Binder |
| --- | --- |
| 0 | ISPPASPPPEFDFSK |
| 3 | VNIPSPSSSPPPIPK |
| 0 | PIVPSSPAPPLPLSG |

molecular target: Sho1, P40073; assay: SPOT array; details: median of control spots 1148
Sequence (P40073 287-367): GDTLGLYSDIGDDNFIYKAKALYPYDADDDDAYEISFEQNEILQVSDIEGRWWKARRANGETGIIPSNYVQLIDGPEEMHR

| SPOT intensity | Binder |
| --- | --- |
| 0 | ISPPASPPPEFDFSK |
| 0 | VNIPSPSSSPPPIPK |
| 0 | PIVPSSPAPPLPLSG |

molecular target: Myo3, P36006; assay: SPOT array; details: median of control spots 468

| SPOT intensity | Binder |
| --- | --- |
| 233 | ISPPASPPPEFDFSK |
| 464 | VNIPSPSSSPPPIPK |
| 399 | PIVPSSPAPPLPLSG |

molecular target: Rvs167, P39743; assay: SPOT array; details: median of control spots 2707
Sequence (P39743 419-482): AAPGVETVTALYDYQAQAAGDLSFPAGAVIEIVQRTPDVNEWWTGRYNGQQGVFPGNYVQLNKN

| SPOT intensity | Binder |
| --- | --- |
| 0 | ISPPASPPPEFDFSK |
| 0 | VNIPSPSSSPPPIPK |
| 0 | PIVPSSPAPPLPLSG |

molecular target: T13, Lsb4, P32793; assay: SPOT array; details: median of control spots 397

| SPOT intensity | Binder |
| --- | --- |
| 0 | ISPPASPPPEFDFSK |
| 0 | VNIPSPSSSPPPIPK |
| 0 | PIVPSSPAPPLPLSG |

molecular target: Bem1-2, P29366; assay: SPOT array; details: median of control spots 4347
Sequence (P29366 139-227): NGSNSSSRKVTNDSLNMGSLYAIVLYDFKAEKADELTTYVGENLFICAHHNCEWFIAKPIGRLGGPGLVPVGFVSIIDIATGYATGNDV

| SPOT intensity | Binder |
| --- | --- |
| 0 | ISPPASPPPEFDFSK |
| 49 | VNIPSPSSSPPPIPK |
| 0 | PIVPSSPAPPLPLSG |

molecular target: T14, Boi1, P38041; assay: SPOT array; details: median of control spots 1162

| SPOT intensity | Binder |
| --- | --- |
| 0 | ISPPASPPPEFDFSK |
| 0 | VNIPSPSSSPPPIPK |
| 0 | PIVPSSPAPPLPLSG |

molecular target: Bem1-1, P29366; assay: SPOT array; details: median of control spots 4282
Sequence (P29366 55-141): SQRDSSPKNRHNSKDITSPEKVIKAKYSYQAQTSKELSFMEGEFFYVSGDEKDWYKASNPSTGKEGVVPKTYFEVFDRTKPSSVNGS

| SPOT intensity | Binder |
| --- | --- |
| 0 | ISPPASPPPEFDFSK |
| 0 | VNIPSPSSSPPPIPK |
| 0 | PIVPSSPAPPLPLSG |

molecular target: T15, Cyk3, Q07533; assay: SPOT array; details: median of control spots 1451

| SPOT intensity | Binder |
| --- | --- |
| 1 | ISPPASPPPEFDFSK |
| 0 | VNIPSPSSSPPPIPK |
| 0 | PIVPSSPAPPLPLSG |

molecular target: T16, Nbp2, Q12163; assay: SPOT array; details: median of control spots 357

| SPOT intensity | Binder |
| --- | --- |
| 0 | ISPPASPPPEFDFSK |
| 2 | VNIPSPSSSPPPIPK |
| 0 | PIVPSSPAPPLPLSG |

molecular target: T17, Bzz1-1, P38822; assay: SPOT array; details: median of control spots 4446

| SPOT intensity | Binder |
| --- | --- |
| 0 | ISPPASPPPEFDFSK |
| 1 | VNIPSPSSSPPPIPK |
| 1 | PIVPSSPAPPLPLSG |

molecular target: T18, Sla1-2, P32790; assay: SPOT array; details: median of control spots 712

| SPOT intensity | Binder |
| --- | --- |
| 0 | ISPPASPPPEFDFSK |
| 0 | VNIPSPSSSPPPIPK |
| 0 | PIVPSSPAPPLPLSG |

molecular target: T19, Lsb1, P53281; assay: SPOT array; details: median of control spots 388

| SPOT intensity | Binder |
| --- | --- |
| 0 | ISPPASPPPEFDFSK |
| 0 | VNIPSPSSSPPPIPK |
| 0 | PIVPSSPAPPLPLSG |

molecular target: T20, Fus1, P11710; assay: SPOT array; details: median of control spots 1200

| SPOT intensity | Binder |
| --- | --- |
| 0 | ISPPASPPPEFDFSK |
| 0 | VNIPSPSSSPPPIPK |
| 1 | PIVPSSPAPPLPLSG |

molecular target: T21, Bbc1, P47068; assay: SPOT array; details: median of control spots 796

| SPOT intensity | Binder |
| --- | --- |
| 0 | ISPPASPPPEFDFSK |
| 0 | VNIPSPSSSPPPIPK |
| 0 | PIVPSSPAPPLPLSG |
